Consider 40 sequences from the nanobody polyreactivity screen of Harvey et al. (2022).

The series can be described thus: yeast display, Sf9 membrane polyspecificity reagent, FACS + sequencing; frameworks hold sequencing errors. The method in brief:
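A synthetic nanobody library was expressed on Saccharomyces cerevisiae BJ5465 by galactose induction for 36–48 hours. The library was stained for 1 hour at 4 °C with 10% biotinylated, detergent-solubilized Sf9 membrane reagent and enriched with streptavidin microbeads before FACS. Low and high (top ~1%) gates were set on anti-HA fluorescence for expression and streptavidin fluorescence for reagent binding, and each polyreactivity label reflects the gate of origin.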
On to “QVQLVESGGGLVQAGGSLRLSCAPSGIIFYVYAIGWYRQAPGMERELVADITYGDRTNYADSVNGRFTISRDNAKNTVYLQMNSLKPEDTAVYYCAAKRNVLLGYTDQSLYDYWGQGTQVTVSS”, for which the “polyreactivity (PSR sort gate)” value is reported as “low polyreactivity”.
The entry for “QVQLVESGGGLVQAGGSLRLSCAPSGITFFYNTMGWYRQAPGKERELVAAISVSGGGTYYADSVKARFTISRDNAKNTVYLQMNSLKPEDTAVYYCNKVQVRQRRYDYWGQGTQVTVSS” is “low polyreactivity”; for “QVQLVESGGGLVQAGGSLRLSCAPSGLIFGRYAMGWYRQAPGKERELVAAISSSGVRTYYADSVKGRFTISRDNAKNTVYLQMNSLKPEDTAVYYCAAAYWSSREDTVIKRYYWGQGTQVTVSS” it is “high polyreactivity”.
The entry for “QVQLVESGGGLVQAGGSLRLSCAPSGLTYLYAMGWYRQAPGKETELVAAISSSGGSTYYADSVKGRFTISRDNAKNTVSLQMNSLNPEDTGVYYCAAYTRGWLGYDYWGQGTQVTVSS” is “high polyreactivity”; for “QVQLVESGGGLVQAGGSLRLSCAPSGRIFEIYAMGWYRQAPGKESELVAAISWRGVSTYYADSVKGRFTISRDNAKNTVYLQMNSLKPEDTAVYYCNKDVDYFWYVEYDYWGQGTQVTVSS” it is “low polyreactivity”; for “QVQLVESGGGLVQAGGSLRLSCAPSGRIFGGYTMGGYRQAHGKVRELVASINSGGSTAYADSVKGRFTISRDNAKNTVYLQMNSLKPEDTAVYYCNAYLVYSYSPSHYYGFGYWGQGTQVTVSS” it is “high polyreactivity”.
The entry for “QVQLVESGGGLVQAGGSLRLSCAPSGRIFPRNAMGWYRQAPGKERELVAAITKSGGSTYYADSVKGRFTISRDNAKNTVYLQMNSLKPEDTAVYYCNAVQYRNYYWGQGTQVTVSS” is “high polyreactivity”; for “QVQLVESGGGLVQAGGSLRLSCAPSGRIFRKYAMGWYRQAPGKERELVAAINSRGGRTYYADSVKGRFTISRDNAKKTVYLQMNSLKPEDTAVYYCAASVGWGMDYWGQGTQVTVSS” it is “high polyreactivity”.
“QVQLVESGGGLVQAGGSLRLSCAPSGRIFSYNTVMGWYRQAPGKERELVAAITYSSASTYYADSVKGRFTISRDNAKNTVYLQMNSLKPEDTAVYYCAAVRYERGLWSDYWGQGTQVTVSS”: the “polyreactivity (PSR sort gate)” value was “high polyreactivity”.
Then “QVQLVESGGGLVQAGGSLRLSCAPSGRIFYGYAMGWYRQAPGKEREFVARINVSGTSTFYADSVKGRFTISRDNAKNTVYLQMNSLKPEDTAVYYCAARGLPSNYYYYVHGYIMDYWGQGTHVTVSS”, with “low polyreactivity”; and “QVQLVESGGGLVQAGGSLRLSCAPSGRILGYYAMGWYRQAPGKERELVAAISSGDSTNYADSVKGRFTISRDNAKYTVYLQMNSLKPEDTAVYYCAAKGWIWNAYNYWGQGTQVTVSS”, with “low polyreactivity”; and “QVQLVESGGGLVQAGGSLRLSCAPSGRILRGYAMGWYRQAPGKDRELVAAISRRGGSTRYADSVKGRFTISRDNAKNTVYLQMNSLKPEDTAVYYCAPRYHPWCYDYWGQGTQVTVSS”, with “high polyreactivity”.
For the sequence “QVQLVESGGGLVQAGGSLRLSCAPSGRILWFYAMGWYRQAPGKERELVAAISSSSGRTYYADSVKGRFTISRDNAKNTVYLQMYILKPEDSAVYYCAATHAVARPLEYDYWGQGTHVTVSS”, the “polyreactivity (PSR sort gate)” value is reported as “low polyreactivity”.
Take “QVQLVESGGGLVQAGGSLRLSCAPSGRISGWYAMGWYRQAPGKQRELVASISSSGGSTYYADSVKGRFTISRDNAKNSVYLQMNSLKPEDTAVYYCAVRRYNWSFYRGYDYWGQGTQVTVSS”: the “polyreactivity (PSR sort gate)” value is recorded as “high polyreactivity”.
For “QVQLVESGGGLVQAGGSLRLSCAPSGRTFGYNVMGWYRQAPGKERELVAAISYSGGSTYYADSVKGRFTISRDNAKNTVYLQMNSLKPEDTAVYYCAATVLSWYGDYPVYYWGQGTQVTVSS”, the “polyreactivity (PSR sort gate)” value is on record as “low polyreactivity”.
On to “QVQLVESGGGLVQAGGSLRLSCAPSGRTFGYYGMGWYRQEPGKERELVASINFSSGSTFYADSVKGRFSISRDNAKNTVYLQMNSLKPEDTAVYYCAARAKAVRSYAYNYWGQGTQVTVSS”, for which the “polyreactivity (PSR sort gate)” value was “low polyreactivity”.
Take “QVQLVESGGGLVQAGGSLRLSCAPSGRTFIFYAMGWSRQAPGKERELVAAISSSGSGTYYADSVKGRFTISRDNAKNTVYLQMNSLIPEDTAVYYCAADVVNSRRRPKYGYWGQGSQVTVSS”: the “polyreactivity (PSR sort gate)” value was “low polyreactivity”.
Regarding “QVQLVESGGGLVQAGGSLRLSCAPSGRTFYSYAMGWYRHAPGKERELGAAITSSGGSTYYADSVKGRFTISRDNAKNTVYLQMNSLKPEDTAVYDCAAGKPYSSYWSWGYWTNLEDDYWGQGTQVNVSS”, the “polyreactivity (PSR sort gate)” value is reported as “high polyreactivity”.
With “QVQLVESGGGLVQAGGSLRLSCAPSGRTLYGYAMGWYRQAPGKVSALVASFRSGGSTNYADSVKGRFTISLDNAKNTVYLQMNSLKPEDTAVYYCAADPYYSYGYYHAHGRDDGYWGQCTQVTVSS”, the “polyreactivity (PSR sort gate)” value was “low polyreactivity”.
As to “QVQLVESGGGLVQAGGSLRLSCAPSGSIFKQYAMGWYRQAPGKERELVARITGSGGSTYYTDSVKGRFTISRDNAKNTVYLQMNSLKPEDTAVYYCNAGGRDAGYDYWGQGTQVTVSS”, the “polyreactivity (PSR sort gate)” value was “low polyreactivity”.
For “QVQLVESGGGLVQAGGSLRLSCAPSGSIFKYNTMGWYRQEPGKERELVATISGGGRTYYADSVKGRFTISRDNAKNTDYLQMNSLKPVDTAVYYCAARKRGNFTYDYWGQGTQVTVSS”, the “polyreactivity (PSR sort gate)” value is listed as “high polyreactivity”.
The entry for “QVQLVESGGGLVQAGGSLRLSCAPSGSIFPYAMGWYRQAPGKERELVAAITRSGASTYYADSVKGRFTISRDNAKNTVYLQLNSLKPEDTAVYYCAAYALRGVRYPYRVDFYYWGQGTQVTVSS” is “high polyreactivity”.
The entry for “QVQLVESGGGLVQAGGSLRLSCAPSGSIFVTYAMGWYRQAPGKERELVAAISTSGGSTYADSVKGRFTISRVNAKNTVYLQMNSLKPEDTAVYYCNADDPGYAVPWYWFKYDYWGQGTQVTVSS” is “low polyreactivity”; for “QVQLVESGGGLVQAGGSLRLSCAPSGSTFGDNAMGWYRQAPGKERELVAAISSGGGSTYYADSVKGRFTISRDNAKNTVYLQMNSLKPEDTAVYYCAADGTLTLYRYILDYWGQGTQVTVSS” it is “low polyreactivity”; for “QVQLVESGGGLVQAGGSLRLSCAPSGSTFLDNAMGLYRQAPGKESELVAAISRGGSTNYADSVKWLFTSSRDNAKNTVYLQMNSLKPEDTAVYYCAARVNYASRYWYYIIRGTIDYYWGQGTQVTVSS” it is “low polyreactivity”.
For the sequence “QVQLVESGGGLVQAGGSLRLSCAPSGSTFPLYAMGWYRQAHGNEREFVAAIRWIGGSTYYADSVKGRFTISRDNAKNTVYLQMNSLKPEDTAVYYCAADYVVSAFDYWGQGTQVTVSS”, the “polyreactivity (PSR sort gate)” value is given as “low polyreactivity”.
With “QVQLVESGGGLVQAGGSLRLSCAPSGSTFQYYAMGWYRQAPGKESELVATITRRGDSTYYADSVKGRFTISRDSAKNTVYFQMNSLKPEDTAVYYCATRYWRSGYDWPYGSWGQGTQETVSS”, the “polyreactivity (PSR sort gate)” value was “high polyreactivity”.
Consider “QVQLVESGGGLVQAGGSLRLSCAPSGTIFYSYAMGWYRQAPGKERELVAAISQRGGSTYYADSVKGRFTISRDNAKNTVYLQMNSLKPEDTAVYYCNAVYRRAQFLYGYDYWGQGTQVTVSS”, for which the “polyreactivity (PSR sort gate)” value is “high polyreactivity”.
With “QVQLVESGGGLVQAGGSLRLSCAPSGYTFIFNVMGWYRQAPGKERELVAAISYSGGSTNYADSVKGRYTTSRDNAKNTVYFQMNSLKPEDTAVYYCNARTVSRNGYQDDYWGQGTQVTVSS”, the “polyreactivity (PSR sort gate)” value is reported as “low polyreactivity”.
Consider “QVQLVESGGGLVQAGGSLRLSCAPTGSIFSVYAMGWYRHAPGKESELVATISSSGSTNYADSVKGRFTISRDNAKNTVYLQMNSLKPEDTAVYYCNVVGEYTQSDYSGYDYWGQGTQVTLSS”, for which the “polyreactivity (PSR sort gate)” value is on record as “low polyreactivity”.
On to “QVQLVESGGGLVQAGGSLRLSCASSGFIFGRNAMGWYRQAPGKERELVAGISSRGGRTYYADSVKGRFTISRDNAKITVYLEMNSLKPEDTAEYYCAAAGLTDYVRYDYWGQGTQVTVSS”, for which the “polyreactivity (PSR sort gate)” value was “high polyreactivity”.
As for “QVQLVESGGGLVQAGGSLRLSCASSGFIFSSYAMGWYRQAPGKERELVARISLSGGSTFYADSVKGRFTISRDNAKNTVYFQMNSLKPEDTAVYYCAARDFSTHFSPMDYWGQGTQVTVSS”, the “polyreactivity (PSR sort gate)” value is on record as “low polyreactivity”.
In the case of “QVQLVESGGGLVQAGGSLRLSCASSGFIFSTSALGWYRQAPGKERELVAAISRTGGSTYYADSDKGRFTISRDNANNTVYLQMNSLKPEDTAVYYCAAAIYSFWYEYNYWGHGTQVTVSS”, the “polyreactivity (PSR sort gate)” value is given as “high polyreactivity”.
As to “QVQLVESGGGLVQAGGSLRLSCASSGFSFLSYTMGWYRQAPGKERELVAAITSGGSTYYADSVKGRFTISRDNAKNTVYLQMNSLKPEDTAVYYCAVTYRWHTFIYDYWGQGTQVTVSS”, the “polyreactivity (PSR sort gate)” value was “low polyreactivity”.
Turning to “QVQLVESGGGLVQAGGSLRLSCASSGFTFRGYAIGWYRQAPGKERELVAAITGGGSTNYADSVKGRFTISRDNAKNTVYLQMNSLKPEDTAVYYCAADASWALFAWAHYDYWGEGTQVTVSS”, the “polyreactivity (PSR sort gate)” value is reported as “low polyreactivity”.
As to “QVQLVESGGGLVQAGGSLRLSCASSGFTFRLNAMGWYRQAPGKERELVAAITRSGGNTYYADSVKGRFTISRDNAKNTVYLQMNSLKPEDTAVYYCAVRQLDRRSPKYNYWGQGTQVTVSS”, the “polyreactivity (PSR sort gate)” value is given as “high polyreactivity”.
On to “QVQLVESGGGLVQAGGSLRLSCASSGFTFSVYAMGWYREAPGKERELVAAITWRGGSTYYADSVKGRFTISRDNAKNTVYLQMNSLKPEDSAVYYCAVLYPKYGKRYGYWGQGTQVTVSS”, for which the “polyreactivity (PSR sort gate)” value was “high polyreactivity”.
Consider “QVQLVESGGGLVQAGGSLRLSCASSGGTFPYYAMGWYRQAPGKERELVAAINYSCGSTYYADSVKGRFTISRDNAQYTVYLQMTSLKPEDTAVFYCAARYQFYRYDSTYSYWGQGTQVTVSS”, for which the “polyreactivity (PSR sort gate)” value is on record as “high polyreactivity”.
Turning to “QVQLVESGGGLVQAGGSLRLSCASSGIIFLTYAMGWYRQAPGKERELVAAINSTGSTNYADSVKGRFTISRDNAKYSVYLQMNSLKPDDTAVYYCAAEGLPYVRVFDFVSRYDYWGQGTQVTVSS”, the “polyreactivity (PSR sort gate)” value is “low polyreactivity”.
The entry for “QVQLVESGGGLVQAGGSLRLSCASSGIIFNVYAMGWYRQAPGKERELVAAISSTSSTYADSVKGRFTISRDNAKNTVYLQMNSLKPEDTAVYYCNTDYSDGYPAFAYWGQGTQVTVSS” is “low polyreactivity”.
